Substrate in the data set: COc1ccc(O[C@H]2S[C@H](CO)[C@@H](O)[C@H](O)[C@H]2NC(C)=O)cc1
As to the kind of experiment: OGA kinetics, Michaelis-Menten hydrolysis of pMP glycosides. Conditions: other: 37° C., pH 7.4. Format: biochemical, human. On the procedure:
OGA kinetics: Synthesis and characterization of para-methoxyphenyl-5SGlcNAc is described in Example II. Kinetics were performed at 37° C. in PBS, pH 7.4 in a total volume of […]. Substrate concentrations of 25 μM to 1.5 mM were used for pMP-GlcNAc and 25 to 800 μM for pMP-5SGlcNAc. OGA (which was over-expressed and purified as described in Ref. ^42) was used at a concentration of 1 μM for pMP-GlcNAc and 3.6 μM for pMP-5SGlcNAc. Rates were monitored at a wavelength of 296 nm over the course of 10-20 min. Data were fit to the Michaelis-Menten equation in GRAFIT^41 and the kcat and KM values determined.

B1: OGA (Homo sapiens) (protein)
chain: MVQKESQATLEERESELSSNPAASAGASLEPPAAPAPGEDNPAGAGGAAVAGAAGGARRFLCGVVEGFYGRPWVMEQRKELFRRLQKWELNTYLYAPKDDYKHRMFWREMYSVEEAEQLMTLISAAREYEIEFIYAISPGLDITFSNPKEVSTLKRKLDQVSQFGCRSFALLFDDIDHNMCAADKEVFSSFAHAQVSITNEIYQYLGEPETFLFCPTEYCGTFCYPNVSQSPYLRTVGEKLLPGIEVLWTGPKVVSKEIPVESIEEVSKIIKRAPVIWDNIHANDYDQKRLFLGPYKGRSTELIPRLKGVLTNPNCEFEANYVAIHTLATWYKSNMNGVRKDVVMTDSEDSTVSIQIKLENEGSDEDIETDVLYSPQMALKLALTEWLQEFGVPHQYSSRQVAHSGAKASVVDGTPLVAAPSLNATTVVTTVYQEPIMSQGAALSGEPTTLTKEEEKKQPDEEPMDMVVEKQEETDHKNDNQILSEIVEAKMAEELKPMDTDKESIAESKSPEMSMQEDCISDIAPMQTDEQTNKEQFVPGPNEKPLYTAEPVTLEDLQLLADLFYLPYEHGPKGAQMLREFQWLRANSSVVSVNCKGKDSEKIEEWRSRAAKFEEMCGLVMGMFTRLSNCANRTILYDMYSYVWDIKSIMSMVKSFVQWLGCRSHSSAQFLIGDQEPWAFRGGLAGEFQRLLPIDGANDLFFQPPPLTPTSKVYTIRPYFPKDEASVYKICREMYDDGVGLPFQSQPDLIGDKLVGGLLSLSLDYCFVLEDEDGICGYALGTVDVTPFIKKCKISWIPFMQEKYTKPNGDKELSEAEKIMLSFHEEQEVLPETFLANFPSLIKMDIHKKVTDPSVAKSMMACLLSSLKANGSRGAFCEVRPDDKRILEFYSKLGCFEIAKMEGFPKDVVILGRSL
notes: made in house
With B1, the Michaelis constant (Km) came to 35 µM.

As usually defined, the Km is the concentration of substrate that gives half-maximal velocity.

Source of the values: US20150259371A1, “METHODS AND COMPOUNDS FOR INHIBITING GLYCOSYLTRANSFERASES” (SIMON FRASER UNIVERSITY, priority 2010, published 2015).
